Experimental findings from PMC5641629 are described below.

The test deals with penicillin binding protein 2a (PBP2a) lacking the N-terminal 40 amino acid membrane-spanning domain (Staphylococcus aureus (MRSA)). In words: SPR. On the technique in general: Surface plasmon resonance follows binding to a sensor surface in real time, without labels.
“BLIP-II S169A (from UniProt O87916 1-311) (natural protein)” displayed a dissociation constant Kd of 1.4 µM, a koff of 0.00074 s⁻¹ and a kon of 504 M⁻¹ s⁻¹.

In turn, “BLIP-II W269A (from UniProt O87916 1-311) (natural protein)” displayed a Kd of 3.1 µM, a koff of 0.00116 s⁻¹ and a kon of 375 M⁻¹ s⁻¹.

Substance “BLIP-II N51A (from UniProt O87916 1-311) (natural protein)” showed an equilibrium dissociation constant (Kd) of 0.7 µM, a koff of 0.00086 s⁻¹ and a kon of 1270 M⁻¹ s⁻¹.

“BLIP-II E268A (from UniProt O87916 1-311) (natural protein)” displayed a Kd of 4.7 µM and a kon of 424 M⁻¹ s⁻¹.

“BLIP-II N112A (from UniProt O87916 1-311) (natural protein)”: the Kd amounted to 1.2 µM, the koff worked out at 0.0014 s⁻¹ and the kon came out at 1190 M⁻¹ s⁻¹.

In the case of “BLIP-II I229A (from UniProt O87916 1-311) (natural protein)”, the Kd is 3.4 µM, the koff was determined as 0.00115 s⁻¹ and the kon was determined as 339 M⁻¹ s⁻¹.

As to “BLIP-II Y73A (from UniProt O87916 1-311) (natural protein)”, the Kd came to 1.2 µM, the koff came to 0.00119 s⁻¹ and the kon is 961 M⁻¹ s⁻¹.

The substance “BLIP-II Y113A (from UniProt O87916 1-311) (natural protein)” displayed a Kd of 4 µM and a kon of 217 M⁻¹ s⁻¹.

Take “BLIP-II L91A (from UniProt O87916 1-311) (natural protein)”: the Kd came to 4 µM, the koff was 0.00066 s⁻¹ and the kon was found to be 168 M⁻¹ s⁻¹.

Substance “BLIP-II Y248A (from UniProt O87916 1-311) (natural protein)” yielded a koff of 0.00086 s⁻¹ and a kon of 114 M⁻¹ s⁻¹.

With “BLIP-II T57A (from UniProt O87916 1-311) (natural protein)”, the Kd is 0.6 µM, the koff was 0.00095 s⁻¹ and the kon was 1750 M⁻¹ s⁻¹.

For “BLIP-II F209A (from UniProt O87916 1-311) (natural protein)”, the Kd amounted to 6 µM, the koff came out at 0.00078 s⁻¹ and the kon worked out at 137 M⁻¹ s⁻¹.

The substance “BLIP-II W152A (from UniProt O87916 1-311) (natural protein)” registered a koff of 0.0012 s⁻¹ and a kon of 185 M⁻¹ s⁻¹.

On to “BLIP-II D52A (from UniProt O87916 1-311) (natural protein)”, for which the Kd is 1.8 µM, the koff turned out to be 0.00061 s⁻¹ and the kon is 354 M⁻¹ s⁻¹.

With “BLIP-II N50A (from UniProt O87916 1-311) (natural protein)”, the Kd worked out at 0.45 µM, the koff stood at 0.000719 s⁻¹ and the kon was found to be 1540 M⁻¹ s⁻¹.

What is called Kd is the constant that tells how readily two partners part at equilibrium. Lower therefore signals higher affinity. Usually koff stands for the first-order rate constant of dissociation. Higher therefore signals a short-lived complex. What is called kon is a measure of how fast the partners come together.
